From patent US20120172295A1 (INDIANA UNIVERSITY RESEARCH AND TECHNOLOGY, published 2012)
Like-named read-outs stand apart in the source and are kept apart here. Starred links: 1 amine or outer side, 2 acyl side, 3 side chain; linkers in the order of their positions; H or OH if unused. Positions of bridges follow the written chain, without caps; N, C: chain ends. Non-standard residues stand in square brackets, D forms with d. Groups on a side chain read outwards from the residue. Primed or numbered codes have the meaning given here. No end group written: not given here. *: point of attachment. PEG 40 kDa = 40 kDa polyethylene glycol attached to Cys; PEG 40 kDa″ = 40 kDa polyethylene glycol; γGlu = O=C(O)[C@H](CCC(=O)[*:2])N[*:1]; Stearoyl = CCCCCCCCCCCCCCCCCC(=O)*; Palmitoyl = CCCCCCCCCCCCCCCC(=O)*; Myristoyl = CCCCCCCCCCCCCC(=O)*; Nle = CCCC[C@H](N)C(=O)O; Octanoyl = CCCCCCCC(=O)*; Orn = NCCC[C@H](N)C(=O)O; Aib = CC(C)(N)C(=O)O

What was measured:
Assay in all cases: cell-based or functional assay
[1] = target: T1, glucagon receptor (UniProt P47871 26-477, limits assumed)
[2] = target: T1, glucagon receptor; remark: listed apart in the source
[3] = target: T2, GLP-1 receptor (UniProt P43220 24-463, limits assumed)
[4] = target: T1, glucagon receptor; remark: listed apart in the source
[5] = target: T3, GIP receptor (UniProt P48546 22-466)
T3 sequence (looked up): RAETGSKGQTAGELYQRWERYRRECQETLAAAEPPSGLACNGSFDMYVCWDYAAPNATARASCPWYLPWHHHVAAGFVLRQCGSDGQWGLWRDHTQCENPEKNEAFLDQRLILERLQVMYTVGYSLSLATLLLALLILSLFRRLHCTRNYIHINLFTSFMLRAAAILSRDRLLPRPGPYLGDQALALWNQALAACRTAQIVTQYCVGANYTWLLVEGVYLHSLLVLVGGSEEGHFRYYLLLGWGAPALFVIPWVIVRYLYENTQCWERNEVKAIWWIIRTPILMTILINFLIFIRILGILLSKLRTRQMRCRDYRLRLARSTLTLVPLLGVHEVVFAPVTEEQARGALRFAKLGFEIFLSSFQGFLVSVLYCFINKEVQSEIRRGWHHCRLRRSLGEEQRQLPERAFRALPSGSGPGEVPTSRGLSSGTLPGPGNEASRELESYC

[6] = target: T2, GLP-1 receptor; remark: listed apart in the source
[7] = target: T1, glucagon receptor; remark: listed apart in the source
[8] = target: T3, GIP receptor; remark: listed apart in the source
[9] = target: T2, GLP-1 receptor; remark: listed apart in the source
[10] = target: T1, glucagon receptor; remark: listed apart in the source
[11] = target: T1, glucagon receptor; remark: listed apart in the source
[12] = target: T2, GLP-1 receptor; remark: listed apart in the source
[13] = target: T1, glucagon receptor; remark: listed apart in the source
[14] = target: T2, GLP-1 receptor; remark: listed apart in the source
[15] = target: T2, GLP-1 receptor; remark: listed apart in the source
[16] = target: T1, glucagon receptor; remark: listed apart in the source
[17] = target: T2, GLP-1 receptor; remark: listed apart in the source
[18] = target: T2, GLP-1 receptor; remark: listed apart in the source
[19] = target: T2, GLP-1 receptor; remark: listed apart in the source
[20] = target: T1, glucagon receptor; remark: listed apart in the source
[21] = target: T2, GLP-1 receptor; remark: listed apart in the source
[22] = target: T2, GLP-1 receptor; remark: listed apart in the source
[23] = target: T1, glucagon receptor; remark: listed apart in the source
[24] = target: T1, glucagon receptor; remark: listed apart in the source

T1 sequence (P47871 26-477 limits assumed): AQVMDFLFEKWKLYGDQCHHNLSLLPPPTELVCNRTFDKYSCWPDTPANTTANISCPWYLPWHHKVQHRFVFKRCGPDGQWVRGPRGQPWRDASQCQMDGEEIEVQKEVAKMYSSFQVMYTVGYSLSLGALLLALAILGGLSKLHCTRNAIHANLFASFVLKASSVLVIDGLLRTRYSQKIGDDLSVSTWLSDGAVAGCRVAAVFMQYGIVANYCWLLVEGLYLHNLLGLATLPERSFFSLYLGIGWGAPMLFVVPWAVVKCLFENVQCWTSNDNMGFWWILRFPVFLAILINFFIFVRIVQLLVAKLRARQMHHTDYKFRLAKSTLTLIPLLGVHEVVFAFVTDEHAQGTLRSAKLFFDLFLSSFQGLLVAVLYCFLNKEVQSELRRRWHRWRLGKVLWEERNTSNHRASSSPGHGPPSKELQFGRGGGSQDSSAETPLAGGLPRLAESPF

HSQGTFTSDK([Trp-Stearoyl])SKYLDERRAKDFVQWLMNT-NH2 [E16 K20-glucagon-NH2 with K10-W-C18]
EC50 [1]: 0.044 nM | EC50 [2]: 0.05 nM

HXQGTFTSDYSKYLDEQAAKEFICWLMNGGPSSGAPPPSK (AIB at 2; Lys 40 acylated with a C14 fatty acyl group) [mt-345]
% Relative activity [3]: 153% | % Relative activity [4]: 193% | % Relative activity [5]: 5% | % Relative activity [6]: 153% | % Relative activity [7]: 193% | EC50 [7]: 0.0183 nM | % Relative activity [8]: 4.99%

HXQGTFTSDKSKYLDERRAKDFVQWLMNT (d-Ser at 2; Lys 10 acylated with C14; C-terminal amide) [Peptide dS2K10(C14)E16K20-Gluc Amide]
EC50 [9]: 0.041 nM | EC50 [10]: 0.155 nM

H[Aib]QGTFTSDK([Trp-Palmitoyl])SKYLD[Aib]RRAQDFVC(PEG 40 kDa)WLMNT-NH2 [Glucagon (1-29a) Aib2 Lys10-Trp-C16 Aib16 Cys24-40 kD]
EC50 [11]: 0.29 nM

H[Aib]QGTFTSDYSKYLDEQAAKEFICWLMNT [Peptide X]
% activity of native GLP-1 [12]: 202% | % activity of native glucagon [13]: 9.38%

HS[Nle]GTFTSDYSKYLDERRAQDFVQWLMNT-NH2 [NLeu3, E16 Gluc-NH2]
Percent Potency Relative to Native Ligand [14]: 20.6%

B1: Peptide 79** (SEQ ID NO: 620) (peptide)
peptide: H[Aib]QGTFTSDK([Ala-Ala-Palmitoyl])SKYLD[Aib]RRAQDFVCWLMNT-NH2
modifications: N-terminus assumed
SMILES: CCCCCCCCCCCCCCCC(=O)N[C@@H](C)C(=O)N[C@@H](C)C(=O)NCCCC[C@H](NC(=O)[C@H](CC(=O)O)NC(=O)[C@H](CO)NC(=O)[C@@H](NC(=O)[C@H](Cc1ccccc1)NC(=O)[C@@H](NC(=O)CNC(=O)[C@H](CCC(N)=O)NC(=O)C(C)(C)NC(=O)[C@@H](N)Cc1c[nH]cn1)[C@@H](C)O)[C@@H](C)O)C(=O)N[C@@H](CO)C(=O)N[C@@H](CCCCN)C(=O)N[C@@H](Cc1ccc(O)cc1)C(=O)N[C@@H](CC(C)C)C(=O)N[C@@H](CC(=O)O)C(=O)NC(C)(C)C(=O)N[C@@H](CCCNC(=N)N)C(=O)N[C@@H](CCCNC(=N)N)C(=O)N[C@@H](C)C(=O)N[C@@H](CCC(N)=O)C(=O)N[C@@H](CC(=O)O)C(=O)N[C@@H](Cc1ccccc1)C(=O)N[C@H](C(=O)N[C@@H](CS)C(=O)N[C@@H](Cc1c[nH]c2ccccc12)C(=O)N[C@@H](CC(C)C)C(=O)N[C@@H](CCSC)C(=O)N[C@@H](CC(N)=O)C(=O)N[C@H](C(N)=O)[C@@H](C)O)C(C)C
EC50 [15]: 0.008 nM | EC50 [16]: 0.01 nM

H[Aib]QGTFTSDK(Myristoyl)SKYLDEQAAKEFIC(PEG 40 kDa)WLMNT-NH2 [C14 acylated Glucagon analog peptide (SEQ ID NO: 535)]
EC50 [17]: 0.044 nM | EC50 [18]: 0.0168 nM

HS[Orn]GTFTSDYSKYLDERRAQDFVQWLMNT-NH2 [Orn3, E16 Gluc-NH2]
Percent Potency Relative to Native Ligand [14]: 0.1%

HXQGTFTSDYSKYLDERRAKDFVQWLMNTK (d-Ser at 2; Lys 30 acylated with C16; C-terminal amide) [Peptide dS2E16K20K30-C16 Gluc Amide]
EC50 [9]: 3.05 nM | EC50 [10]: 4.89 nM

H[Aib]QGTFTSDK(Palmitoyl)SKYLDEQAAKEFIC(PEG 40 kDa)WLMNT-NH2 [C16 acylated Glucagon analog peptide (SEQ ID NO: 536)]
EC50 [17]: 0.033 nM | EC50 [18]: 0.0127 nM | EC50 [19]: 0.05 nM | EC50 [20]: 17.4 nM

HSQGTFTSDK(Palmitoyl)SKYLDERRAKDFVQWLMNT-NH2 [E16 K20-glucagon-NH2 with K10-C16]
EC50 [21]: 0.125 nM | EC50 [1]: 0.236 nM | EC50 [22]: 0.09 nM | EC50 [2]: 0.4 nM

B2: Peptide 78** (SEQ ID NO: 617) (peptide)
peptide: H[Aib]QGTFTSDK([γGlu-γGlu-Myristoyl])SKYLD[Aib]RRAQDFVCWLMNT-NH2
modifications: N-terminus assumed
SMILES: CCCCCCCCCCCCCC(=O)N[C@@H](CCC(=O)N[C@@H](CCC(=O)NCCCC[C@H](NC(=O)[C@H](CC(=O)O)NC(=O)[C@H](CO)NC(=O)[C@@H](NC(=O)[C@H](Cc1ccccc1)NC(=O)[C@@H](NC(=O)CNC(=O)[C@H](CCC(N)=O)NC(=O)C(C)(C)NC(=O)[C@@H](N)Cc1c[nH]cn1)[C@@H](C)O)[C@@H](C)O)C(=O)N[C@@H](CO)C(=O)N[C@@H](CCCCN)C(=O)N[C@@H](Cc1ccc(O)cc1)C(=O)N[C@@H](CC(C)C)C(=O)N[C@@H](CC(=O)O)C(=O)NC(C)(C)C(=O)N[C@@H](CCCNC(=N)N)C(=O)N[C@@H](CCCNC(=N)N)C(=O)N[C@@H](C)C(=O)N[C@@H](CCC(N)=O)C(=O)N[C@@H](CC(=O)O)C(=O)N[C@@H](Cc1ccccc1)C(=O)N[C@H](C(=O)N[C@@H](CS)C(=O)N[C@@H](Cc1c[nH]c2ccccc12)C(=O)N[C@@H](CC(C)C)C(=O)N[C@@H](CCSC)C(=O)N[C@@H](CC(N)=O)C(=O)N[C@H](C(N)=O)[C@@H](C)O)C(C)C)C(=O)O)C(=O)O
EC50 [15]: 0.008 nM | EC50 [16]: 0.009 nM

H[Aib]QGTFTSDK(Palmitoyl)SKYLD[Aib]RRAQDFVQWLMNT-NH2 [Peptide 50 (SEQ ID NO: 563)]
EC50 [23]: 0.572 nM | EC50 [24]: 0.052 nM | EC50 (20% human plasma) [24]: 0.023 nM

H[Aib]QGTFTSDKSKYLDEQAAKEFIC(PEG 40 kDa)WLMNT-NH2 [Non-acylated Glucagon analog peptide (SEQ ID NO: 580)]
EC50 [17]: 0.095 nM

B3: Peptide 80** (SEQ ID NO: 619) (peptide)
peptide: H[Aib]QGTFTSDK([γGlu-γGlu-Palmitoyl])SKYLD[Aib]RRAQDFVCWLMNT-NH2
modifications: N-terminus assumed
SMILES: CCCCCCCCCCCCCCCC(=O)N[C@@H](CCC(=O)N[C@@H](CCC(=O)NCCCC[C@H](NC(=O)[C@H](CC(=O)O)NC(=O)[C@H](CO)NC(=O)[C@@H](NC(=O)[C@H](Cc1ccccc1)NC(=O)[C@@H](NC(=O)CNC(=O)[C@H](CCC(N)=O)NC(=O)C(C)(C)NC(=O)[C@@H](N)Cc1c[nH]cn1)[C@@H](C)O)[C@@H](C)O)C(=O)N[C@@H](CO)C(=O)N[C@@H](CCCCN)C(=O)N[C@@H](Cc1ccc(O)cc1)C(=O)N[C@@H](CC(C)C)C(=O)N[C@@H](CC(=O)O)C(=O)NC(C)(C)C(=O)N[C@@H](CCCNC(=N)N)C(=O)N[C@@H](CCCNC(=N)N)C(=O)N[C@@H](C)C(=O)N[C@@H](CCC(N)=O)C(=O)N[C@@H](CC(=O)O)C(=O)N[C@@H](Cc1ccccc1)C(=O)N[C@H](C(=O)N[C@@H](CS)C(=O)N[C@@H](Cc1c[nH]c2ccccc12)C(=O)N[C@@H](CC(C)C)C(=O)N[C@@H](CCSC)C(=O)N[C@@H](CC(N)=O)C(=O)N[C@H](C(N)=O)[C@@H](C)O)C(C)C)C(=O)O)C(=O)O
EC50 [15]: 0.008 nM | EC50 [16]: 0.006 nM

H[Aib]QGTFTSDK(Octanoyl)SKYLDEQAAKEFIC(PEG 40 kDa)WLMNT-NH2 [C8 acylated Glucagon analog peptide (SEQ ID NO: 534)]
EC50 [17]: 0.058 nM | EC50 [18]: 0.0174 nM

HXQGTFTSDYSKYLDERRAKDFVQWLMNTK (d-Ser at 2; Lys 30 acylated with C14; C-terminal amide) [Peptide dS2E16K20K30-C14 Gluc Amide]
EC50 [9]: 0.84 nM | EC50 [10]: 3.53 nM

HXQGTFTSDKSKYLDERRAKDFVQWLMNT (d-Ser at 2; Lys 10 acylated with C16; C-terminal amide) [Peptide dS2K10(C16)E16K20-Gluc Amide]
EC50 [9]: 0.041 nM | EC50 [10]: 0.076 nM

H[Aib]QGTFTSDYSKYLDEQAAKEFIC([maleimide-PEG 40 kDa″])WLMNT (lactam 16-20) [Peptide Y-PEG]
% activity of native GLP-1 [12]: 47.6% | EC50 (cAMP, CRE-luciferase) [12]: 0.059 nM | % activity of native glucagon [13]: 8.22% | EC50 (cAMP, CRE-luciferase) [13]: 0.667 nM
